Molecular target: vitronectin (urea-purified)
Assay: solid-phase binding assay

| fold reduction in binding | Substance |
| --- | --- |
| > 5 fold | soluble uPAR R91A (from UniProt Q03405 23-305) (domain or fragment) |
| > 5 fold | soluble uPAR R58A (from UniProt Q03405 23-305) (domain or fragment) |
| > 5 fold | soluble uPAR Y92A (from UniProt Q03405 23-305) (domain or fragment) |
| > 5 fold | soluble uPAR I63A (from UniProt Q03405 23-305) (domain or fragment) |
| > 5 fold | soluble uPAR W32A (from UniProt Q03405 23-305) (domain or fragment) |
